From patent publication US20250163161A1 (TECHNISCHE UNIVERSIT T DARMSTADT, published 2025)
Where two headings read alike, the source gives them in different places. One block for each binder: values may come before it.

Columns and labels:
Assay in all cases: BLI
[1] = biological target: T1, epidermal growth factor receptor (EGFR), soluble, as used in BLI (UniProt P00533 25-645)
T1 construct: extracellular domain; also called EGFR-ECD

[2] = biological target: T2, programmed death-ligand 1 (PD-L1), soluble, as used in BLI (UniProt Q9NZQ7 19-238)
T2 construct: extracellular domain; also called PD-L1-ECD

CD16 [3] = biological target: T3, CD16 (UniProt P08637 17-208)
T3 construct: also called Fcγ-receptor IIIa

[4] = biological target: T1, epidermal growth factor receptor …; remark: listed apart in the source
[5] = biological target: T2, programmed death-ligand 1 (PD-L1), …; remark: listed apart in the source
CD16 [6] = biological target: T3, CD16; remark: listed apart in the source

T2 sequence (Q9NZQ7 19-238): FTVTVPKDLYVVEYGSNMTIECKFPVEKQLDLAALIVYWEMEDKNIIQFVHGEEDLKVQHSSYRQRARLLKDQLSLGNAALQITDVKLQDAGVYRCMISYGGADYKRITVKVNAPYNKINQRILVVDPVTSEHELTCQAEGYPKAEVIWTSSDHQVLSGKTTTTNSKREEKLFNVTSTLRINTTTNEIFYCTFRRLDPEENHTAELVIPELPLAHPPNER
T3 sequence (P08637 17-208): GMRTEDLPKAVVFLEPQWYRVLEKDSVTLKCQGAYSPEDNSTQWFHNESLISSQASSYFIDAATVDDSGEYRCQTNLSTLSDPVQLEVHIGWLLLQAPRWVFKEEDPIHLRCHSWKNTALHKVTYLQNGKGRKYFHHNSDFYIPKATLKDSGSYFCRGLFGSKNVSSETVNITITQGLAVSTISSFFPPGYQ

Kd [1]: 320 nM
Kd (CD16 [3]): 21.9 nM
B1: HC16/ICI2 KiH variant: HCP-LCE on one side and CD16 binder HC16 on the other, paired with the HCP-LCE light chain (bispecific antibody)
VH 1: AVTLDESGGGLQTPGGALSLVCKASGFDFSSYDMAWVRQAPGKGLEWVAGIKSNGPWTNYGAAVKGRATISRDNGQSTVRLQLNNLRAEDTAIYYCAKPGAGYVGWDAAGTIDSWGHGTEVIVSS
VH 2: AVTLDESGGGLQTPGGTLSLVCRASGFSFSSSDMFWVRQAPGKGLEYVAQISKDGSGKYYGAAVKGRATISRDNGQSTVRLQLNNLRAEDTGIYFCAKSGRGYVTAGRIDTWGHGTEVIVSS
light: ALTQPSSVSANLGETVKITCSGGAYSDCGWYQQKSPGSAPVTVIYYNDKRPSDIPSRFSGSTFGSTATLTITGVQAEDEAVYYCGGYDSRTGYVGVFGAGTTLTVLGQPKANPTVTLFPPSSEELQANKATLVCLISDFYPGAVTVAWKADGSPVKAGVETTKPSKQSNNKYAASSYLSLTPEQWKSHRSYSCQVTHEGSTVEKTVAPTECS
Kd [2]: 57.7 nM

Kd [4]: 570 nM
Kd (CD16 [6]): 277 nM
B2: Knob-into-Hole (KiH) trispecific variant V1: HCP-LCE on one side and heavy chain of CD16 binder NKE14, paired with the HCP-LCE light chain (bispecific antibody, human IgG1, lambda, L234A L235A)
heavy 1: AVTLDESGGGLQTPGGALSLVCKASGFDFSSYDMAWVRQAPGKGLEWVAGIKSNGPWTNYGAAVKGRATISRDNGQSTVRLQLNNLRAEDTAIYYCAKPGAGYVGWDAAGTIDSWGHGTEVIVSSASTKGPSVFPLAPSSKSTSGGTAALGCLVKDYFPEPVTVSWNSGALTSGVHTFPAVLQSSGLYSLSSVVTVPSSSLGTQTYICNVNHKPSNTKVDKRVEPKSCDKTHTCPPCPAPEAAGGPSVFLFPPKPKDTLMISRTPEVTCVVVDVSHEDPEVKFNWYVDGVEVHNAKTKPREEQYNSTYRVVSVLTVLHQDWLNGKEYKCKVSNKALPAPIEKTISKAKGQPREPQVYTLPPSREEMTKNQVSLWCLVKGFYPSDIAVEWESNGQPENNYKTTPPVLDSDGSFFLYSKLTVDKSRWQQGNVFSCSVMHEALHNHYTQKSLSLSPG
heavy 2: AVTLDESGGGLQTPGGGLSLVCKGSGFTFSSYNMGWVRQAPGKGLEFVASIDDDGSFTHYGAAVKGRATISRDNGQSTVRLQLNNLRVEDSGIYYCAKSSINGYRCSGGLCVPYITGNIDAWGHGTEVIVSSASTKGPSVFPLAPSSKSTSGGTAALGCLVKDYFPEPVTVSWNSGALTSGVHTFPAVLQSSGLYSLSSVVTVPSSSLGTQTYICNVNHKPSNTKVDKRVEPKSCDKTHTCPPCPAPEAAGGPSVFLFPPKPKDTLMISRTPEVTCVVVDVSHEDPEVKFNWYVDGVEVHNAKTKPREEQYNSTYRVVSVLTVLHQDWLNGKEYKCKVSNKALPAPIEKTISKAKGQPREPQVYTLPPSREEMTKNQVSLSCAVKGFYPSDIAVEWESNGQPENNYKTTPPVLDSDGSFFLVSKLTVDKSRWQQGNVFSCSVMHEALHNRFTQKSLSLSPG
light: B1 light
notes: Trispecific (EGFR, PD-L1, CD16)
Kd [5]: 104 nM

Kd [4]: 763 nM
Kd (CD16 [6]): 346 nM
B3: one-armed ICI2_outer and NKE14_inner variant V3 (bispecific antibody, human IgG1, lambda, L234A L235A)
heavy 1: AVTLDESGGGLQTPGGALSLVCKASGFDFSSYDMAWVRQAPGKGLEWVAGIKSNGPWTNYGAAVKGRATISRDNGQSTVRLQLNNLRAEDTAIYYCAKPGAGYVGWDAAGTIDSWGHGTEVIVSSASTKGPSVFPLAPSSKSTSGGTAALGCLVKDYFPEPVTVSWNSGALTSGVHTFPAVLQSSGLYSLSSVVTVPSSSLGTQTYICNVNHKPSNTKVDKRVEPKSCDGGGGSGGGGSAVTLDESGGGLQTPGGGLSLVCKGSGFTFSSYNMGWVRQAPGKGLEFVASIDDDGSFTHYGAAVKGRATISRDNGQSTVRLQLNNLRVEDSGIYYCAKSSINGYRCSGGLCVPYITGNIDAWGHGTEVIVSSASTKGPSVFPLAPSSKSTSGGTAALGCLVKDYFPEPVTVSWNSGALTSGVHTFPAVLQSSGLYSLSSVVTVPSSSLGTQTYICNVNHKPSNTKVDKRVEPKSCDKTHTCPPCPAPEAAGGPSVFLFPPKPKDTLMISRTPEVTCVVVDVSHEDPEVKFNWYVDGVEVHNAKTKPREEQYNSTYRVVSVLTVLHQDWLNGKEYKCKVSNKALPAPIEKTISKAKGQPREPQVYTLPPSREEMTKNQVSLWCLVKGFYPSDIAVEWESNGQPENNYKTTPPVLDSDGSFFLYSKLTVDKSRWQQGNVFSCSVMHEALHNHYTQKSLSLSPG
heavy 2: EPKSCDKTHTCPPCPAPEAAGGPSVFLFPPKPKDTLMISRTPEVTCVVVDVSHEDPEVKFNWYVDGVEVHNAKTKPREEQYNSTYRVVSVLTVLHQDWLNGKEYKCKVSNKALPAPIEKTISKAKGQPREPQVYTLPPSREEMTKNQVSLSCAVKGFYPSDIAVEWESNGQPENNYKTTPPVLDSDGSFFLVSKLTVDKSRWQQGNVFSCSVMHEALHNRFTQKSLSLSPG
light: B1 light
notes: also called oaICI2_outer
Kd [5]: 115 nM

Kd [4]: 603 nM
Kd (CD16 [6]): 302 nM
B4: NKE14_outer and ICI2_inner trispecific variant V4 (bispecific antibody, human IgG1, lambda, L234A L235A)
heavy: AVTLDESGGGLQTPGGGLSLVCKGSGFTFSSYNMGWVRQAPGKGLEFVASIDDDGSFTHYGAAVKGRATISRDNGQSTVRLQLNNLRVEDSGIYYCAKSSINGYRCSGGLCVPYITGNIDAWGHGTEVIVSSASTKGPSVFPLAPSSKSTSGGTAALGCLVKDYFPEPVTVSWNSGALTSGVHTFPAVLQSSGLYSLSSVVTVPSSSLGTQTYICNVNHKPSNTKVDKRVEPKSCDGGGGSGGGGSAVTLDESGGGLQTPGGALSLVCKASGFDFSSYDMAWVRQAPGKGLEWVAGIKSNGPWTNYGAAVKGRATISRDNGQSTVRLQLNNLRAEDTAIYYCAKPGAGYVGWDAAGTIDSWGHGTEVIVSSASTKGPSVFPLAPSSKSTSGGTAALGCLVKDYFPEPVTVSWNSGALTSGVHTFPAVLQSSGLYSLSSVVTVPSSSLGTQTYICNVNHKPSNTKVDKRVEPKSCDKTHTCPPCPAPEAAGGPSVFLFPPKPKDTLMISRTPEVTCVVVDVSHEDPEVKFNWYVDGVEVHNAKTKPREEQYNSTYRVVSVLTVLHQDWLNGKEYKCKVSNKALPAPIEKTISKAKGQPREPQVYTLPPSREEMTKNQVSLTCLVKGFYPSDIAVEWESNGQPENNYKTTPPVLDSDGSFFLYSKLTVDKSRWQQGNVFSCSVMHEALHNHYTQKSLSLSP
light: B1 light
notes: Two Fabs on each side, common light chain LCE; also called NKE14_outer Fab
Kd [5]: 125 nM

Kd [1]: 331 nM
Kd (CD16 [3]): 17 nM
B5: HC16_outer/ICI2_inner trispecific variant (full-length HC16_outer and ICI2_inner LALA construct) (bispecific antibody, human IgG1, lambda, L234A L235A)
heavy: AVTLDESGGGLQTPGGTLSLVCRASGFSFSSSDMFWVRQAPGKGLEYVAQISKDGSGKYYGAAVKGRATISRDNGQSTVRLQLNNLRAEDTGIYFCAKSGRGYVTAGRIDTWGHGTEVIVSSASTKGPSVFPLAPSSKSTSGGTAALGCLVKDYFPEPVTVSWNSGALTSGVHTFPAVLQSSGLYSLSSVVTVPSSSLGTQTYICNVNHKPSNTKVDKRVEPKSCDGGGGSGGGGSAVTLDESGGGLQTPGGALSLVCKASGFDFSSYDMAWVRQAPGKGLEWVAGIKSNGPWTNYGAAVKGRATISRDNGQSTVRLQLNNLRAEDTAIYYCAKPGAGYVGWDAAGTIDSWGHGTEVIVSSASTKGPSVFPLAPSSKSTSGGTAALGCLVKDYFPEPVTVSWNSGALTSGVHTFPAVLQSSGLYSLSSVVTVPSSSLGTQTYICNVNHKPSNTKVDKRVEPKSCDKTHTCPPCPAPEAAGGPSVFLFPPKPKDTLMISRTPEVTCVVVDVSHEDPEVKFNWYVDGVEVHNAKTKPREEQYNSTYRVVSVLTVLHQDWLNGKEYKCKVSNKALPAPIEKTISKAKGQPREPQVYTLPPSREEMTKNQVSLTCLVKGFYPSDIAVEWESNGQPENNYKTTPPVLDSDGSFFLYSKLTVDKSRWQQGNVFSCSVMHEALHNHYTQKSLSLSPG
light: B1 light
notes: Two Fabs on each side, common light chain LCE; also called HC16_outer/ICI2_inner LALA
Kd [2]: 68 nM

Kd [4]: 982 nM
Kd (CD16 [6]): 342 nM
B6: one-armed NKE14_outer and ICI2_inner variant V5 (bispecific antibody, human IgG1, lambda, L234A L235A)
heavy 1: AVTLDESGGGLQTPGGGLSLVCKGSGFTFSSYNMGWVRQAPGKGLEFVASIDDDGSFTHYGAAVKGRATISRDNGQSTVRLQLNNLRVEDSGIYYCAKSSINGYRCSGGLCVPYITGNIDAWGHGTEVIVSSASTKGPSVFPLAPSSKSTSGGTAALGCLVKDYFPEPVTVSWNSGALTSGVHTFPAVLQSSGLYSLSSVVTVPSSSLGTQTYICNVNHKPSNTKVDKRVEPKSCDGGGGSGGGGSAVTLDESGGGLQTPGGALSLVCKASGFDFSSYDMAWVRQAPGKGLEWVAGIKSNGPWTNYGAAVKGRATISRDNGQSTVRLQLNNLRAEDTAIYYCAKPGAGYVGWDAAGTIDSWGHGTEVIVSSASTKGPSVFPLAPSSKSTSGGTAALGCLVKDYFPEPVTVSWNSGALTSGVHTFPAVLQSSGLYSLSSVVTVPSSSLGTQTYICNVNHKPSNTKVDKRVEPKSCDKTHTCPPCPAPEAAGGPSVFLFPPKPKDTLMISRTPEVTCVVVDVSHEDPEVKFNWYVDGVEVHNAKTKPREEQYNSTYRVVSVLTVLHQDWLNGKEYKCKVSNKALPAPIEKTISKAKGQPREPQVYTLPPSREEMTKNQVSLWCLVKGFYPSDIAVEWESNGQPENNYKTTPPVLDSDGSFFLYSKLTVDKSRWQQGNVFSCSVMHEALHNHYTQKSLSLSPG
heavy 2: B3 heavy 2
light: B1 light
notes: also called oaNKE14_outer
Kd [5]: 137 nM

Kd [4]: 460 nM
Kd (CD16 [6]): 382 nM
B7: ICI2_outer and NKE14_inner trispecific variant V2 (bispecific antibody, human IgG1, lambda, L234A L235A)
heavy: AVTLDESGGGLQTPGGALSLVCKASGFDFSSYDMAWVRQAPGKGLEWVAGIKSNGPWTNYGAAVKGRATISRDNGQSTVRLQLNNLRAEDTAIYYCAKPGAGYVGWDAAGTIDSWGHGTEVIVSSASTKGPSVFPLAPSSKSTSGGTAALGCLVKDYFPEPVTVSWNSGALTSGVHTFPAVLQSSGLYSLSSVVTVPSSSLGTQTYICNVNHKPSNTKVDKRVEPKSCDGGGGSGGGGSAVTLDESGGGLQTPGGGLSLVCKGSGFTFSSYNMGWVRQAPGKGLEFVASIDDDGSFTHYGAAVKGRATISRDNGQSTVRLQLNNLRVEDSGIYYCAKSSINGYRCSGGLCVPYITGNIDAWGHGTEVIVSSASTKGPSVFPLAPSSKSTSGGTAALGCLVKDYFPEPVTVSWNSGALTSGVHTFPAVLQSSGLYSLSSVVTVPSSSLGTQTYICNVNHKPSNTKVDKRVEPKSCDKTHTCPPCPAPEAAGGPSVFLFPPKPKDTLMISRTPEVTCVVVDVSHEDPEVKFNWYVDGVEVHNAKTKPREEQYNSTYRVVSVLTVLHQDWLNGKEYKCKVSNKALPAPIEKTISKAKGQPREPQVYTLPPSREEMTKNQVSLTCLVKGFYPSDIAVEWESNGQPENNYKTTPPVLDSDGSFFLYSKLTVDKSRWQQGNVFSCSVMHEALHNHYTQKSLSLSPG
light: B1 light
notes: Two Fabs on each side, common light chain LCE; also called ICI2_outer Fab
Kd [5]: 97.6 nM

Kd (CD16 [6]): 151 nM
B8: NKE14 + LCE comparative mAb (CD16-binding antibody NKE14 heavy chain with LCE light chain) (antibody)
VH: AVTLDESGGGLQTPGGGLSLVCKGSGFTFSSYNMGWVRQAPGKGLEFVASIDDDGSFTHYGAAVKGRATISRDNGQSTVRLQLNNLRVEDSGIYYCAKSSINGYRCSGGLCVPYITGNIDAWGHGTEVIVSS
light: B1 light
notes: LCE is the HCP-LCE light chain
